Here are results for three substances from publication PMC9507130.

This experiment addresses Vin1^1-116-mScI (UniProt P36158). As to the kind of experiment: subcellular recruitment assay (fluorescence microscopy, puncta quantification). The conditions noted are these: vrl1 vin1Δ cells; over-expressed Vrl1(1-703)YPE chimera; pVIN1(1-116)-mScI; n=3, cells/strain/replicate ≥863; parent: est. 0.82; read off a plot.
Chain of UniProt P36158 (P36158 1-116): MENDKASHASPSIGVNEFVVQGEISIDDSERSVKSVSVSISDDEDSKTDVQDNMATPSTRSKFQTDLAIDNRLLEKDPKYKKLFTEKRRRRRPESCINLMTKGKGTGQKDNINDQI
Regarding “Vrl1(1-703)^YPE (from UniProt P38815) D511K”, the other: Average Bright Vin1(1-116)-mScI Puncta Per Cell (puncta per cell) was found to be 0.14. The value for “Vrl1(1-703)^YPE (from UniProt P38815) E504A; E510A; D511A; N546A; E551A” was 0.075. The figure for “Vrl1(1-703)^YPE (from UniProt P38815) E510R” is 0.04.
